According to patent publication US20100099103A1:

Biological target: human TNF (hTNF) (human) (UniProt P01375)
Assay: method not stated (free scFv protein; titration curves in FIG. 11)

Sequence of UniProt P01375 (P01375 77-233 limits assumed): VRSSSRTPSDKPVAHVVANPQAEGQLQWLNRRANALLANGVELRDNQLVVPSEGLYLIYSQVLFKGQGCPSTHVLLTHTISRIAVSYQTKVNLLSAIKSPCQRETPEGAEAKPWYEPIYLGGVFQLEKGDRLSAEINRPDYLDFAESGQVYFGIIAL

## 2SD4 scFv (D2E7 scFv precursor), free protein
  Kd: 200 nM
